± gives the uncertainty stated by the source.
B1: POU domain, class 2, transcription factor 3, residues 186 to 260; numbered along this chain, Q9UKI9 (parent)
chain: SDLEELEKFAKTFKQRRIKLGFTQGDVGLAMGKLYGNDFSQTTISRFEALNLSFKNMCKLKPLLEKWLNDAESSP

Variants of: B1
Assay: abundance fitness (aPCA) (normalised: wild type 0, dead -1); higher = more abundant; growth selection in yeast, the domain comes from the species named
Settings: Homo sapiens

SDLEELEKFAKTFKQRRIKLGFTSGDVGLAMGKLYGNDFSQTTISRFEALNLSFKNMCKLKPLLEKWLNDAESSP [Q24S] and SDLEELEKFAKTFKQRRIKLGFTCGDVGLAMGKLYGNDFSQTTISRFEALNLSFKNMCKLKPLLEKWLNDAESSP [Q24C] are within error of each other in abundance fitness: -0.071 ± 0.26 for the first, -0.155 ± 0.19 for the second.

SDLEELEKFAKTFKQRRIKLGFTWGDVGLAMGKLYGNDFSQTTISRFEALNLSFKNMCKLKPLLEKWLNDAESSP [Q24W] and SDLEELEKFAKTFKQRRIKLGFTAGDVGLAMGKLYGNDFSQTTISRFEALNLSFKNMCKLKPLLEKWLNDAESSP [Q24A] are within error of each other in abundance fitness: -0.591 ± 0.48 for the first, -0.451 ± 0.44 for the second.

First: SDLEELEKFAKTFKQRRYKLGFTQGDVGLAMGKLYGNDFSQTTISRFEALNLSFKNMCKLKPLLEKWLNDAESSP [I18Y]
Second: SDLEELEKFAKTFKQRRVKLGFTQGDVGLAMGKLYGNDFSQTTISRFEALNLSFKNMCKLKPLLEKWLNDAESSP [I18V]
The abundance fitness of the first is lower: -0.166 ± 0.054 for the first, -0.023 ± 0.027 for the second.

First: SDLEELEKFAKTFKQRRHKLGFTQGDVGLAMGKLYGNDFSQTTISRFEALNLSFKNMCKLKPLLEKWLNDAESSP [I18H]
Second: SDLEELEKFAKTFKQRREKLGFTQGDVGLAMGKLYGNDFSQTTISRFEALNLSFKNMCKLKPLLEKWLNDAESSP [I18E]
The abundance fitness of the first is lower: -0.133 ± 0.072 for the first, 0.064 ± 0.031 for the second.

Compared with SDLEELEKFAKTFKQRRFKLGFTQGDVGLAMGKLYGNDFSQTTISRFEALNLSFKNMCKLKPLLEKWLNDAESSP [I18F], SDLEELEKFAKTFKQRRSKLGFTQGDVGLAMGKLYGNDFSQTTISRFEALNLSFKNMCKLKPLLEKWLNDAESSP [I18S] is higher in abundance fitness: -0.266 ± 0.076 for the first, -0.072 ± 0.029 for the second.

SDLEELEKFAKTFKQRRRKLGFTQGDVGLAMGKLYGNDFSQTTISRFEALNLSFKNMCKLKPLLEKWLNDAESSP [I18R] and SDLEELEKFAKTFKQRRDKLGFTQGDVGLAMGKLYGNDFSQTTISRFEALNLSFKNMCKLKPLLEKWLNDAESSP [I18D] are within error of each other in abundance fitness: -0.057 ± 0.025 for the first, -0.063 ± 0.048 for the second.

Going from SDLEELEKFAKTFKQRRPKLGFTQGDVGLAMGKLYGNDFSQTTISRFEALNLSFKNMCKLKPLLEKWLNDAESSP [I18P] to SDLEELEKFAKTFKQRRKKLGFTQGDVGLAMGKLYGNDFSQTTISRFEALNLSFKNMCKLKPLLEKWLNDAESSP [I18K], the abundance fitness rises from -0.964 ± 0.1 to -0.028 ± 0.042.

Compared with SDLEELEKFAKTFKQRRLKLGFTQGDVGLAMGKLYGNDFSQTTISRFEALNLSFKNMCKLKPLLEKWLNDAESSP [I18L], SDLEELEKFAKTFKQRRCKLGFTQGDVGLAMGKLYGNDFSQTTISRFEALNLSFKNMCKLKPLLEKWLNDAESSP [I18C] is lower in abundance fitness: -0.025 ± 0.028 for the first, -0.143 ± 0.046 for the second.

Going from SDLEELEKFAKTFKQRRQKLGFTQGDVGLAMGKLYGNDFSQTTISRFEALNLSFKNMCKLKPLLEKWLNDAESSP [I18Q] to SDLEELEKFAKTFKQRRWKLGFTQGDVGLAMGKLYGNDFSQTTISRFEALNLSFKNMCKLKPLLEKWLNDAESSP [I18W], the abundance fitness falls from 0.086 ± 0.038 to -0.31 ± 0.038.

First: SDLEELEKFAKTFKQRRNKLGFTQGDVGLAMGKLYGNDFSQTTISRFEALNLSFKNMCKLKPLLEKWLNDAESSP [I18N]
Second: SDLEELEKFAKTFKQRRMKLGFTQGDVGLAMGKLYGNDFSQTTISRFEALNLSFKNMCKLKPLLEKWLNDAESSP [I18M]
The abundance fitness of the first is lower: -0.146 ± 0.056 for the first, 0.004 ± 0.034 for the second.

SDLEELEKFAKTFKQRRTKLGFTQGDVGLAMGKLYGNDFSQTTISRFEALNLSFKNMCKLKPLLEKWLNDAESSP [I18T] and SDLEELEKFAKTFKQRRIKLGETQGDVGLAMGKLYGNDFSQTTISRFEALNLSFKNMCKLKPLLEKWLNDAESSP [F22E] are within error of each other in abundance fitness: -0.041 ± 0.036 for the first, -0.412 ± 0.39 for the second.

SDLEELEKFAKTFKQRRIKLGSTQGDVGLAMGKLYGNDFSQTTISRFEALNLSFKNMCKLKPLLEKWLNDAESSP [F22S] and SDLEELEKFAKTFKQRRIKLGATQGDVGLAMGKLYGNDFSQTTISRFEALNLSFKNMCKLKPLLEKWLNDAESSP [F22A] are within error of each other in abundance fitness: -0.282 ± 0.31 for the first, 0.146 ± 0.15 for the second.

SDLEELEKFAKTFKQRRIKLGRTQGDVGLAMGKLYGNDFSQTTISRFEALNLSFKNMCKLKPLLEKWLNDAESSP [F22R] and SDLEELEKFAKTFKQRRIKLGLTQGDVGLAMGKLYGNDFSQTTISRFEALNLSFKNMCKLKPLLEKWLNDAESSP [F22L] are within error of each other in abundance fitness: -0.274 ± 0.25 for the first, 0.065 ± 0.17 for the second.

SDLEELEKFAKTFKQRRIKLVFTQGDVGLAMGKLYGNDFSQTTISRFEALNLSFKNMCKLKPLLEKWLNDAESSP [G21V] and SDLEELEKFAKTFKQRRIKLSFTQGDVGLAMGKLYGNDFSQTTISRFEALNLSFKNMCKLKPLLEKWLNDAESSP [G21S] are within error of each other in abundance fitness: -0.683 ± 0.44 for the first, -0.504 ± 0.28 for the second.

SDLEELEKFAKTFKQRRIKLDFTQGDVGLAMGKLYGNDFSQTTISRFEALNLSFKNMCKLKPLLEKWLNDAESSP [G21D] and SDLEELEKFAKTFKQRRIKLQFTQGDVGLAMGKLYGNDFSQTTISRFEALNLSFKNMCKLKPLLEKWLNDAESSP [G21Q] are within error of each other in abundance fitness: -0.373 ± 0.2 for the first, -0.493 ± 0.39 for the second.

SDLEELEKFAKTFKQRRIKKGFTQGDVGLAMGKLYGNDFSQTTISRFEALNLSFKNMCKLKPLLEKWLNDAESSP [L20K] and SDLEELEKFAKTFKQRRIKLGFSQGDVGLAMGKLYGNDFSQTTISRFEALNLSFKNMCKLKPLLEKWLNDAESSP [T23S] are within error of each other in abundance fitness: -0.591 ± 0.48 for the first, 0.026 ± 0.14 for the second.

SDLEELEKFAKTFKQRRIKLGFAQGDVGLAMGKLYGNDFSQTTISRFEALNLSFKNMCKLKPLLEKWLNDAESSP [T23A] and SDLEELEKFAKTFKQRRILLGFTQGDVGLAMGKLYGNDFSQTTISRFEALNLSFKNMCKLKPLLEKWLNDAESSP [K19L] are within error of each other in abundance fitness: -0.157 ± 0.47 for the first, 0.228 ± 0.41 for the second.

SDLEELEKFAKTFKQRRIALGFTQGDVGLAMGKLYGNDFSQTTISRFEALNLSFKNMCKLKPLLEKWLNDAESSP [K19A] and SDLEELEKFAKTFKQRRIDLGFTQGDVGLAMGKLYGNDFSQTTISRFEALNLSFKNMCKLKPLLEKWLNDAESSP [K19D] are within error of each other in abundance fitness: -0.321 ± 0.47 for the first, 0.131 ± 0.22 for the second.

With SDLEELEKFAKTFKQRRISLGFTQGDVGLAMGKLYGNDFSQTTISRFEALNLSFKNMCKLKPLLEKWLNDAESSP [K19S] the abundance fitness was 0.11 ± 0.41.

Reference: the Human Domainome abundance scans (Beltran et al. 2025)
